In this assay the target is SARS-COV-1 spike protein on VSV-delG pseudotyped particles (SARS-COV-1, UniProt P59594 14-1255). In words: cell-based or functional assay.

B1: VHH72_h1_S56A (VHH)
VHH: EVQLVESGGGLVQPGGSLRLSCAASGRTFSEYAMGWFRQAPGKEREFVATISWSGGATYYTDSVKGRFTISRDNAKNTVYLQMNSLRPEDTAVYYCAAAGLGTVVSEWDYDYDYWGQGTLVTVSS
B1: the “IC50 Mean VSV-dG-spike SARS-COV-1” value was determined as 0.013 mg/L.

The record behind these values is patent US20240228596A1 (VIB VZW, published 2024).
